In patent US20230080865A1:

Key:
[1] = target: AEG::SOE3 chimeric recombinant protein; assay: ELISA, AEG::SOE3 coated on wells; reagent 1:1000
[2] = target: AEG::SOE2 chimeric recombinant protein; assay: ELISA, AEG::SOE2 coated on wells; reagent 1:1000

**Q.** How did the ELISA signal [1] turn out when “secondary peroxidase-conjugated goat anti-mouse IgG (antibody)” was run?
**A.** Its ELISA signal is 0.111.

**Q.** And the ELISA signal [2]?
**A.** The ELISA signal was 0.11.
